43 substances from US20210230570 can be followed below.

Data set [1] deals with plasma purified human AT-III (antithrombin III), in complex with low molecular weight heparin. The data set is described as follows: same assay; ratio of K0.5 to that of Catalyst Biosciences WT FIXa.
Data set [2] relates to Antithrombin III (AT-III), plasma purified human, in complex with full-length unfractionated heparin (UFH).
The target in data set [3] is Factor X (FX), active site titrated and DFP/EGR-cmk treated zymogen (UniProt P00742).
Another data set deals with Factor X (FX) (UniProt P00742).
The target of a further data set is Factor X (UniProt P00742).
Chain of Factor X (P00742 41-488): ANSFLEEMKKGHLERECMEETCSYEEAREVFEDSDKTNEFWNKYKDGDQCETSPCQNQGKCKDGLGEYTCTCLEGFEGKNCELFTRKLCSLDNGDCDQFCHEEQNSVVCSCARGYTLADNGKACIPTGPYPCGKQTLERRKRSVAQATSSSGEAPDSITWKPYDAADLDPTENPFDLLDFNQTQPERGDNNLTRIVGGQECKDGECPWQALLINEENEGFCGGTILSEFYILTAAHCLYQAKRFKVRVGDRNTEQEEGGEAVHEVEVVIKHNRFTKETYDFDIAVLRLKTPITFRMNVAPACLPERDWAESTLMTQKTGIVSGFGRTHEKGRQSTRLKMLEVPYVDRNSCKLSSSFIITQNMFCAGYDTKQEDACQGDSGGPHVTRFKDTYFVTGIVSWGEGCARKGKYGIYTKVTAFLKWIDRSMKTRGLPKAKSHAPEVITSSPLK

Chain of Factor X (FX), active site titrated and DFP/EGR-cmk treated zymogen (P00742 41-488): as above
Chain of Factor X (FX) (P00742 41-488): as above

“BeneFIX Coagulation Factor IX (Recombinant), activated (FIXa)”: the K0.5-mut/K0.5-wt in data set [1] turned out to be 0.9. As to FIXa A103N/N105S, in data set [2], the K0.5 was determined as 20 nM and the K0.5-mut/K0.5-wt is 1. Take “FIXa A103N/N105S (A[103]N/N[105]S by chymotrypsin numbering)”: the kcat (commonly the maximal rate divided by the concentration of active sites) in data set [3] is 3.1 s⁻¹. In data set [2], FIXa A103N/N105S/Y155F came in with a K0.5 of 11 nM and a K0.5-mut/K0.5-wt of 0.6. As to “FIXa A103N/N105S/Y155F (A[103]N/N[105]S/Y[155]F by chymotrypsin numbering)”, the kcat in data set [3] was determined as 3.2 s⁻¹. FIXa D64A: in data set [2], the K0.5 came to 16 nM and the K0.5-mut/K0.5-wt turned out to be 0.8.

With “FIXa D64A (D[64]A by chymotrypsin numbering)”, the turnover number (kcat) in data set [3] stood at 0.3 s⁻¹. For “FIXa D64N (D[64]N by chymotrypsin numbering)”, the kcat in data set [3] is 1.2 s⁻¹. With FIXa D85N, in data set [2], the K0.5 came to 17 nM and the K0.5-mut/K0.5-wt was 0.9. Take “FIXa D85N (D[85]N by chymotrypsin numbering)”: the kcat in data set [3] was 4.2 s⁻¹. Take FIXa D104N/K106S: in data set [2], the K0.5 was determined as 20 nM and the K0.5-mut/K0.5-wt stood at 1. For the substance “FIXa D104N/K106S (D[104]N/K[106]S by chymotrypsin numbering)”, the kcat in data set [3] turned out to be 3.1 s⁻¹. In data set [2], FIXa D104N/K106S/Y155F showed a K0.5 of 6 nM and a K0.5-mut/K0.5-wt of 0.3. Regarding “FIXa D104N/K106S/Y155F (D[104]N/K[106]S/Y[155]F by chymotrypsin numbering)”, the kcat in data set [3] stood at 2.9 s⁻¹. For the substance FIXa K5A, in data set [2], the K0.5 turned out to be 22 nM and the K0.5-mut/K0.5-wt stood at 1.2. Moreover, the KM (in general, the substrate concentration at which the rate is half of its maximum) with Factor X (FX) worked out at 0.0654 µM. “FIXa K5A (K[5]A by chymotrypsin numbering)”: the kcat in data set [3] amounted to 3.1 s⁻¹. Turning to FIXa N157D, the K0.5 in data set [2] worked out at 17 nM. FIXa N157Q had a K0.5 in data set [2] of 16 nM.

Take FIXa N167D: the K0.5 in data set [2] is 12 nM. Still for that read-out and setting: the result for FIXa N167Q reads 12 nM. Consider FIXa S53A, for which, in data set [2], the K0.5 was 27 nM and the K0.5-mut/K0.5-wt was found to be 1.4. For “FIXa S53A (S[53]A by chymotrypsin numbering)”, in data set [3], the kcat is 3.7 s⁻¹. As to FIXa S61A, in data set [2], the K0.5 came to 19 nM and the K0.5-mut/K0.5-wt came out at 1. In data set [2], FIXa S158D displayed a K0.5 of 15 nM. Still for that read-out and setting: the result for FIXa S158E reads 14 nM; that for FIXa T159A, 33 nM. On the same count and under the same terms, with FIXa T169A the figure was 17 nM; with FIXa T172A, 16 nM. Substance FIXa Y155F registered a K0.5 in data set [2] of 13 nM. The same measure, in the same setting: the result for FIXa Y155H reads 25 nM. Same read-out and setting: with FIXa Y155Q the figure was 23 nM. FIXa-A103N/N105S: the K0.5-mut/K0.5-wt in data set [1] amounted to 1.1. Consider FIXa-A103N/N105S/Y155F, for which, in the data set with Factor X (FX), the “% of WT (kcat/KM)” value turned out to be 85% and the kcat/KM (M^-1s^-1) worked out at 3.9e+07 M⁻¹ s⁻¹. Moreover, in the data set with Factor X, the kcat came to 3.2 s⁻¹. With FIXa-D64A, the kcat/KM (M^-1s^-1) with Factor X (FX) was 2.5e+06 M⁻¹ s⁻¹. Moreover, the kcat in the data set with Factor X turned out to be 0.3 s⁻¹. The matching figures for FIXa-D64N: 1e+07 M⁻¹ s⁻¹ and 1.2 s⁻¹. For FIXa-D85N, in the data set with Factor X (FX), the “% of WT (kcat/KM)” value is listed as 153%; the kcat/KM – broadly, the turnover number divided by the Michaelis constant – was 7e+07 M⁻¹ s⁻¹; the kcat/KM (M^-1s^-1) is 7.3e+07 M⁻¹ s⁻¹. Further, the kcat in the data set with Factor X was 4.1 s⁻¹. For the same substance, the K0.5-mut/K0.5-wt in data set [1] is 1.1. Take FIXa-D104N/K106S: in the data set with Factor X (FX), the “% of WT (kcat/KM)” value was found to be 83% and the kcat/KM (M^-1s^-1) was found to be 3.8e+07 M⁻¹ s⁻¹. Besides, the K0.5-mut/K0.5-wt in data set [1] was found to be 0.9. Turning to FIXa-D104N/K106S/Y155F, in the data set with Factor X (FX), the “% of WT (kcat/KM)” value came out at 78% and the kcat/KM (M^-1s^-1) stood at 3.6e+07 M⁻¹ s⁻¹. In addition, the kcat with Factor X came out at 2.9 s⁻¹.

Regarding FIXa-K5A, in the data set with Factor X, the kcat was 3.5 s⁻¹. With FIXa-K106N/V108S, in the data set with Factor X (FX), the “% of WT (kcat/KM)” value is listed as 60% and the kcat/KM (M^-1s^-1) was found to be 2.8e+07 M⁻¹ s⁻¹. Also, in the data set with Factor X, the kcat was found to be 2.5 s⁻¹. For the same substance, the K0.5-mut/K0.5-wt in data set [1] came to 1.6. In the case of FIXa-S53A, in the data set with Factor X (FX), the “% of WT (kcat/KM)” value was 76% and the kcat/KM (M^-1s^-1) stood at 3.5e+07 M⁻¹ s⁻¹. Also, in the data set with Factor X, the kcat was determined as 3.7 s⁻¹. As to FIXa-S61A, in the data set with Factor X (FX), the “% of WT (kcat/KM)” value was found to be 105% and the kcat/KM (M^-1s^-1) worked out at 4.8e+07 M⁻¹ s⁻¹. Consider Plasma Purified FIXa, for which the K0.5 in data set [2] was 30 nM.
